Measurements reported in US11946041B2, “Modification of polypeptides” (BicycleRD Limited, priority 2017, dated 2024).
“Also recorded” adds a separate entry of the source.

Experiments:
MT1-MMP hemopexin domain = molecular target: T1, MT1-MMP hemopexin domain (Homo sapiens, UniProt P50281); assay: MMP-14 FP competition binding between peptide families
T1 construct: Human MMP-14 PEX protein at 71.1 μM monomer
Protocol: FIG. 6 illustrates an analysis of MT-MMP binding ligands. A: MMP-14 FP direct binding in cell-based selections; 1 nM tracer, 60 min data. 17-98-Sar6-k(FI)-and-17-99-Sar6-k(FI)-bind with Kds of 354 nM and 501 nM respectively. B: competition binding with several combinations of peptides, both fluorescein-labelled or native, from soluble and cell based selections.
FIG. 7 illustrates the competition profile between peptide ligands isolated in this example.
• Human MMP-14 PEX protein at 71.1 μM monomer (previously 77.1 μM) (T-017-011), stored in fridge (4/7/14) • Peptides as described in Results section
Method: • Prepare assay buffer: 20 mM HEPES, 150 mM NaCl, 1 mM CaCl2), 0.1% Tween20 (pH 7.6). Buffer was filtered before use to remove precipitate. • Method according to Example 3 with tracer at 1 nM and MMP-14 PEX at concentrations detailed in the graphs • 60 min data analysed • Results are shown in FIG. 6.

EphA3 = molecular target: T2, EphA3 (Homo sapiens, UniProt P29320); assay: EphA3 FP competition assay with 67-10-05 as labelled tracer; assay type: binding; settings: tracer 67-10-05
T2 construct: So far all selections have been performed with soluble EphA3 ecto domain
T2 sequence (P29320 21-541 limits assumed): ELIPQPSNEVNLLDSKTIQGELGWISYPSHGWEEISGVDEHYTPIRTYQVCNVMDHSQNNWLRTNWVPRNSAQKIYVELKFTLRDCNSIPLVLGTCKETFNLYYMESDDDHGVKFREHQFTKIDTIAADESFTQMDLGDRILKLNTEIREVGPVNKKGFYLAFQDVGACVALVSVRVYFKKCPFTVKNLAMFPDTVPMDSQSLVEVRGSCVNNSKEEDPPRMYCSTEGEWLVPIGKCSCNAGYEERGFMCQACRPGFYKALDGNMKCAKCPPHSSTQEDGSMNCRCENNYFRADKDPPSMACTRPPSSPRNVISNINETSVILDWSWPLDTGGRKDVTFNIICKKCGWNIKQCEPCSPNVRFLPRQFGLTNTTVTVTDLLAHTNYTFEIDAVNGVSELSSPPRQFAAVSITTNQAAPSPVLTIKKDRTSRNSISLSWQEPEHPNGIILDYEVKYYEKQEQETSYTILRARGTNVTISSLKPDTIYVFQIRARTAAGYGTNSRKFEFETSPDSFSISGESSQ

Sequence | competition with other peptide families (MT1-MMP hemopexin domain) | Ki (nM) (EphA3) | binding site on MT1-MMP (MT1-MMP hemopexin domain)
CQNRFPNCPINGFFC [Peptide 17-99] | competes with all the other families | – | –
CRASAGQCNPDPKLC [67-24-00-N001, EphA3 peptide from cell-based screening, 6X6 loops] | – | No binding | –
CKMESWECLMLHPKC [Peptide 17-98] | – | – | binds to the same site as the 17-88 family (the collagen binding site)
CYNEFGCEDFYDIC [Peptide 17-69-07] | do not cross compete | – | binds to a neutral binding site; also recorded: binding site is distinct from the 17-88/17-98 binding site
